Assay results: paper PMC4164519

Target: Neu4 with a C-terminal TAP (SBP/CBP) tag expressed in COS 7 cells (human) (UniProt Q8WWR8)
Test: SEC; FPLC size exclusion chromatography of the purified enzyme; apparent mass

Substance: Neu4 with a C-terminal TAP (SBP/CBP) tag expressed in COS 7 cells (from UniProt Q8WWR8 1-484) (enzyme)
- stoichiometry N: 2
